From the DeepSol protein solubility set

Assay: soluble on expression in E. coli; label from the status in PepcDB or PDB records

Which “soluble on expression in E. coli” value does the source give for “MWTATACSIDSSPSMWNCAEVMDSTRSELLQSTPEAEDGNIEYKLKLVNPSQYRFEHLVTQMKWRLQEGRGEAVYQIGVEDNGLLVGLAEEEMRASLKTLHRMAEKVGADITVLREREVDYDSDVPRKITEVLVRKVPDNQQFLDLRVAVLGNVDSGKSTLLGVLTQGELDNGRGRARLNLFRHLHEIQSGRTSSISFEILGFNSKGEVVNYSDSRTAEEICESSSKMITFIDLAGHHKYLHTTIFGLTSYCPDCALLLVSANTGIAGTTREHLGLALALKVPFFIVVSKVDLCAKTTVERTVRQLERVLKQPGCHKVPMLVTSEDDAVTAAQQFAQSPNVTPIFTLSSVSGESLDLLKVFLNILPPLTNSKEQEELMQQLTEFQVDEIYTVPEVGTVVGGTLSSGICREGDQLVVGPTDDGCFLELRVCSIQRNRSACRVLRAGQAATLALGDFDRALLRKGMVMVSPEMNPTICSVFEAEIVLLFHATTFRRGFQVTVHVGNVRQTAVVEKIHAKDKLRTGEKAVVRFRFLKHPEYLKVGAKLLFREGVTKGIGHVTDVQAITAGEAQATMGF” here?
Its value is “soluble”.

Which “soluble on expression in E. coli” value does the source give for “STTGIIMENVTAFWEEGFGELLEKVQQSNGDRKHSSDENNVSFSHLCLVGNPVLKNINLNIEKGEMLAITGSTGSGKTSLLMLILGELEASEGIIKHSGRVSFCSQFSWIMPGTIKENIIFGVSYDEYRYKSVVKACQLQQDITKFAEQDNTVLGEGGVTLSGGQRARISLARAVYKDADLYLLDSPFGYLDVFTEEQVFESCVCKLMANKTRILVTSKMEHLRKADKILILHQGSSYFYGTFSELQSLRPDFSSKLMGYDTFDQFTEERRSSILTETLRRFSVDDSSAPWSKPKQSFRQTGEVGEKRKNSILNSFSSVRKISIVQKTPLCIDGESDDLQEKRLSLVPDSEQGEAALPRSNMIATGPTFPGRRRQSVLDLMTFTPNSGSSNLQRTRTSIRKISLVPQISLNEVDVYSRRLSQDSTLNITEEINEEDLKECFLDDVIKIPPVTTWNTYLRYFTLHKG” here?
The value was “soluble”.

For “MSLAERLEIMVPSGSYVSFMRNTVTPEFNKLYPEVNLVVSNDEQLDTRMAAGDNPNVYIGVFGYQPAKLAKLGKLAYLDKFPGFAELNERIDPHFLRENFGRTYYIPWNATTQMMIYNKELFAEAGLDPERPPATWDEFLLAAEKISALPPRSDGSKVYGTVFWNDVLSFGSWYWNLLTPMYYNVNQGQYQLLNRYGTDIVFDRPDANMAQFMRTMQQAQRFAPLTMEKSFFSRNIGMWLQFGFGWKATLSSAAERPMVVGQDVAIAPIPVQTKGDIHYSVLDGRAIMIFKDEARKEQLSWALLNLLMRDDINLQANIALGQLPTLKALQDAPYFQSAEAQPFVQQLQHAILSEPFANAMEVANIILANYSKVVLKGEISPEQAVATSAQAARQLLNEHEGHHHHHH”, which “soluble on expression in E. coli” value is on record?
The value was “soluble”.

Which “soluble on expression in E. coli” value does the source give for “MSLGSVKIVSDLPLQGANRAQTISMVNAIRLAIDQRGGKVAGLKIEYESLDDATAQSGQWDEGKCAENAQQAAQDEEIVGWIGPFNSGCAAVEIPILNEAGLVMISPANTYVGLTKEGGEPDEPDKYYPTGQRNYTRVIPADDKQGRLAAVLMREEGVRTVFILDDRETYGKGLADQVQKSAEEFGIEVVGRQGIDGSASNYRGLMNRVREANPDAIYFGGIIENNAGQLVRDKVGAGMPNDEVLFIGPDGIFVDTFIEQAGDAAEGAYVTFGGIPPERLGERGQRFIEEYNAKYPDDPIQAYTAYAYEAANVLLDAIERAQKADGEVNRENVLREVFATENYKGVLGTWSFDENGDTTLTKLSVQRVQNGEFKLDRVLDVSREGHHHHHH” here?
The value was “soluble”.

With “MQPTETSQPAPSDQGRRLKDQLSESMSFSSQMKKEDDELSMKALSAFKAKEEEIEKKKMEIRERVQAQLGRVEDESKRLAMIREELEGFADPMRKEVTMVRKKIDSLDKELKPLGNTVQKKETEYKDALEAFNEKNKEKVELITKLQEGESEKFRFKKLEELSKNIDLTKP” as the sequence, how does the “soluble on expression in E. coli” value read?
The value was “not soluble”.

Which “soluble on expression in E. coli” value does the source give for “MILRRPSQADKEAILDMMGEFEREKSVHDGGFWNADNFIYEEWLEENLQSEAGLNIPENWVPAIQLVSFNESGHALGFLHLRLRLNGRLLEKGGHIGYSIRPSERGKGYAKESLRQGLQVAKEKNIQRALVTCSTENPASRAVILANGGQLEDICNETERYWIDLE” here?
The value was “not soluble”.

With “YTRRSIEKMVKTQVDSKVLDEKNKYYEQQLVTMKQTLESQRTVRHDLKNKLSPLIYLAESGKTDELVEQVQELGSLSVLGKIYADSGNITIDYIINLKLQALANKGVTIFCEINVPNDIDVVPFDLSTVLGNLIDNAAEALEYVQNEKWIGIKISYQVGFLMIQVANSFDGIVHLDNKKIISRKEDTENHGIGLTSIKKIAGKYDGEVVVQHDDKQFDVIVKLLA” as the sequence, how does the “soluble on expression in E. coli” value read?
The value was “not soluble”.

For “MPKVDVYDINGKVVGEINLRDDIFGIEVNKHAIHQVIVNQLANRRQGTQSTKTKSEVRGGGRKPWRQKGTGRARHGSIRSAQWVKGGIALGPKPRSYKYAVPKKLRRLALKSALSSKVNENELLVLDSLNFDEIKTKQMANVLKNLKVNDTTAVLVLADKNRNVELSARNIPGLKTLFVNTMNVYDIIRHDKFIITKDAVAKVEEVYA”, which “soluble on expression in E. coli” value is on record?
The value was “not soluble”.

With “MGLDISDETLKIQKKKENENRVIILMIPGNPGNEGFYAHFGREVLQNLIKKDEDEQKNLKNQYLFYTVSSLNHVRMPDHLKDDGEHRNHDRISLEEQVNHKLSFVKEHLPRGKQLYILGHSIGSYMMLRIIPEVIKEGFHVEKAVGLFPTIVHMANSPNGKRLHGTLATLNHHDWLTKTICWWVDYLPNSIKKFLVGLNLRHPNTPPEIVDAAVELVHMDVFRNIVHMSNDELDIVLDLDERLLEKQDVVHFYYGLKDGWCPVQHGYSMRDRLGEEQVTLDEDNCEHAFVISEGDIMARNVIKYFD” as the sequence, how does the “soluble on expression in E. coli” value read?
The value was “not soluble”.

Which “soluble on expression in E. coli” value does the source give for “MKRQLFTVLVCMTMFAVASCGEKKGKDKFEERIEKAKESVEDVVDDAKDQIEDKADEVGETLDKAKSKIEKAKKKLDEANRD” here?
Its value is “not soluble”.

For “MGSDKIHHHHHHMIEKVEEKSKIIKTSKEYKRTIIEEKDKEWTKKLNDILSRSSFSNDELDKIKALIPKEILTNENVGEVVTEDGYAKPEYDEVFKSLFTLNNEYDLLVNFINDILKDAPYANRNIKPFTQIKRIIRVETDPTINYIGEKRPRLDILAEDEENNHINIEMQRAFENDYLERAEYYLSRVHGRKLEEGKEYKEIGKTIGIHILNHVKYNHIEDYVNCLRLTMDGHPDIYSSKTALYFIELPKIHKSDYIVNRIMLWGKLISNPSNLDVRVIAKNDSIIKKALDRLKELGSNEEYLLNLKRGAYIMNKSRNFKEEIERETAIRVAKEKDYKIIIMLKKNGFKLDDILNKFNDFDLSEDEIKEVYENN”, which “soluble on expression in E. coli” value is on record?
Its value is “not soluble”.

Which “soluble on expression in E. coli” value does the source give for “MSLAGCTSPANNGAGGDENGETVYRVAYVARTQSDSFAAWLANAISEEADKYDNIIIDVFDGQASDSTQNSLIENAITSNYDAIIIQPNNGEAQKSYAEQAVAAGIITITTNARIEGVQGASSVDADPYEQAKVNADVALEQIPQNANVVVLKGPPGNFHADARRDSWQKEFFDKRPDVTIVGEEIANWNKDEAMTYMETWVQANSKIDAIIAMNDNMAAGALEVVRDDSNFAGMLSYGVDGTAEAVLLIQEGVMTQTSLQSAYDLATALLDTSNKLLTGAETQIDIDIDAPVINSDNVEEYVEMHKRAGAIREGHHHHHH” here?
Its value is “soluble”.

With “MGSDKIHHHHHHMKVLLYLEAENYLRKSGIGRAIKHQAKALSLVGQHFTTNPRETYDLVHLNTYGLKSWLLMIKAQKAGKKVIMHGHSTEEDFRNSFIFSNLLSPWFKKYLCHFYNKADAIITPTLYSKSLIESYGVKSPIFAVSNGIDLEQYGADPKKEAAFRRYFDIKEGEKVVMGAGLFFLRKGIDDFVKVAQAMPDVRFIWFGETNKWVIPAQVRQMVNGNHPKNLIFPGYIKGDVYEGAMTGADAFFFPSREETEGIVVLEALASRQHLVLRDIPVYYGWVDQSSAELATDIPGFIEALKKVFSGASNKVEAGYKVAQSRRLETVGHALVDVYKKVMEL” as the sequence, how does the “soluble on expression in E. coli” value read?
The value was “not soluble”.

With “MGSDKIHHHHHHMDYSSKDIKSIISEILDKKKAKGGVKSIYVVGCGGSLGALYPAKTFMEKECTSIKSAWINSSEFIHSTPKDFGVNSIICLACHKGNTPETIAAAKLGKEMGATVIILTWLKESEIIEFGDYIIRYTFDASPDHLKGDIDYSGEKTICALLVAVELLAQTEGYENYNKFYEGTKMISNIIKNARNHVAERAVKFAEKYKDDSVIYTMGSGASYGAAYMESICIFMEMQWLNSSSIHTGEYFHGPFEITDANRPFMIQISEGSTRDLDERALKFLNTYAKRIEVLDAKELGLSTIDASVVDYFNHSLFNNVYPIYNHELATKREHPLPTRRYMWKVEY” as the sequence, how does the “soluble on expression in E. coli” value read?
The value was “not soluble”.
